From IntAct's records for PubMed 17399790

B1: Complement factor H (Homo sapiens), P08603-1 (parent)
chain: MRLLAKIICLMLWAICVAEDCNELPPRRNTEILTGSWSDQTYPEGTQAIYKCRPGYRSLGNVIMVCRKGEWVALNPLRKCQKRPCGHPGDTPFGTFTLTGGNVFEYGVKAVYTCNEGYQLLGEINYRECDTDGWTNDIPICEVVKCLPVTAPENGKIVSSAMEPDREYHFGQAVRFVCNSGYKIEGDEEMHCSDDGFWSKEKPKCVEISCKSPDVINGSPISQKIIYKENERFQYKCNMGYEYSERGDAVCTESGWRPLPSCEEKSCDNPYIPNGDYSPLRIKHRTGDEITYQCRNGFYPATRGNTAKCTSTGWIPAPRCTLKPCDYPDIKHGGLYHENMRRPYFPVAVGKYYSYYCDEHFETPSGSYWDHIHCTQDGWSPAVPCLRKCYFPYLENGYNQNYGRKFVQGKSIDVACHPGYALPKAQTTVTCMENGWSPTPRCIRVKTCSKSSIDIENGFISESQYTYALKEKAKYQCKLGYVTADGETSGSITCGKDGWSAQPTCIKSCDIPVFMNARTKNDFTWFKLNDTLDYECHDGYESNTGSTTGSIVCGYNGWSDLPICYERECELPKIDVHLVPDRKKDQYKVGEVLKFSCKPGFTIVGPNSVQCYHFGLSPDLPICKEQVQSCGPPPELLNGNVKEKTKEEYGHSEVVEYYCNPRFLMKGPNKIQCVDGEWTTLPVCIVEESTCGDIPELEHGWAQLSSPPYYYGDSVEFNCSESFTMIGHRSITCIHGVWTQLPQCVAIDKLKKCKSSNLIILEEHLKNKKEFDHNSNIRYRCRGKEGWIHTVCINGRWDPEVNCSMAQIQLCPPPPQIPNSHNMTTTLNYRDGEKVSVLCQENYLIQEGEEITCKDGRWQSIPLCVEKIPCSQPPQIEHGTINSSRSSQESYAHGTKLSYTCEGGFRISEENETTCYMGKWSSPPQCEGLPCKSPPEISHGVVAHMSDSYQYGEEVTYKCFEGFGIDGPAIAKCLGEKWSHPPSCIKTDCLSLPSFENAIPMGEKKDVYKAGEQVTYTCATYYKMDGASNVTCINSRWTGRPTCRDTSCVNPPTVQNAYIVSRQMSKYPSGERVRYQCRSPYEMFGDEEVMCLNGNWTEPPQCKDSTGKCGPPPPIDNGDITSFPLSVYAPASSVEYQCQNLYQLEGNKRITCRNGQWSEPPKCLHPCVISREIMENYNIALRWTAKQKLYSRTGESVEFVCKRGYRLSSRSHTLRTTCWDGKLEYPTCAKR
partner: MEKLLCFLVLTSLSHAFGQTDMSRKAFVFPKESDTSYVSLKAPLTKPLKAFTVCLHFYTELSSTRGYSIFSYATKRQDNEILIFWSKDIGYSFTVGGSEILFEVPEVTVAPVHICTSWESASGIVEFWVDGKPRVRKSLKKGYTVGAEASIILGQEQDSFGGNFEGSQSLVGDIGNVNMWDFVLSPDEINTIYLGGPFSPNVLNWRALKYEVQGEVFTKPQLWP
B2: Complement factor H (Homo sapiens), P08603-2 (parent)
chain: MRLLAKIICLMLWAICVAEDCNELPPRRNTEILTGSWSDQTYPEGTQAIYKCRPGYRSLGNVIMVCRKGEWVALNPLRKCQKRPCGHPGDTPFGTFTLTGGNVFEYGVKAVYTCNEGYQLLGEINYRECDTDGWTNDIPICEVVKCLPVTAPENGKIVSSAMEPDREYHFGQAVRFVCNSGYKIEGDEEMHCSDDGFWSKEKPKCVEISCKSPDVINGSPISQKIIYKENERFQYKCNMGYEYSERGDAVCTESGWRPLPSCEEKSCDNPYIPNGDYSPLRIKHRTGDEITYQCRNGFYPATRGNTAKCTSTGWIPAPRCTLKPCDYPDIKHGGLYHENMRRPYFPVAVGKYYSYYCDEHFETPSGSYWDHIHCTQDGWSPAVPCLRKCYFPYLENGYNQNYGRKFVQGKSIDVACHPGYALPKAQTTVTCMENGWSPTPRCIRVSFTL
partner: B1 partner

Variants of: B1
Settings: with crp_human CRP

Row | effect of a mutation on the interaction | Variant
1 | decreasing interaction strength | Y402H

Variants of: B2
Settings: with crp_human CRP

Row | effect of a mutation on the interaction | Variant
2 | decreasing interaction strength | Y402H
